Results: patent US20040242851A1 (published 2004)

Assays:
Flt-1-Fc fusion protein [1] = target: T1, Flt-1-Fc fusion protein (UniProt P17948 27-756, limits assumed); assay: BIAcore SPR, Flt-1-Fc immobilized on the chip, antibody injected
T1 construct: Bought from R&D Systems; also called immobilized Flt-1; not shown: Fc
Procedure: (§1) The binding kinetics of the diabody and its parent scFv to KDR and Flt-1 were measured using a BIAcore biosensor (Pharmacia Biosensor). KDR-AP or Flt-1-Fc fusion protein was immobilized onto a sensor chip and soluble antibodies were injected at concentrations ranging from 1.5 nM to 100 nM. Sensorgrams were obtained at each concentration and were analyzed with, BIA Evaluation 2.0, a program to determine the rate constants kon and koff. The affinity constant, Kd, was calculated from the ratio of rate constants koff/kon.

Flt-1-Fc fusion protein [2] = target: T1, Flt-1-Fc fusion protein; assay: direct binding ELISA on immobilized Flt-1, detection with anti-E tag antibody-HRP, A450
Procedure: (§2) Two assays were carried out to determine the dual antigen binding capability of the diabody. First, a cross-linking assay was used to investigate whether the diabody is capable of binding both of its target antigens simultaneously. Briefly, the diabody or its parent scFv were first incubated in a 96-well Maxi-sorp microtiter plate (Nunc, Roskilde, Denmark) precoated with Flt-1-Fc fusion protein (1 μg/ml×[…] per well overnight at 4° C.) at room temperature (RT) for 1 h. The plate was washed three times with PBS containing 0.1% Tween (PBST), followed by incubation with KDR-AP fusion protein at RT for additional 1 h. The plate-bound KDR-AP was then quantified by the addition of AP substrate, p-nitrophenyl phosphate (Sigma, St. Louis, Mo.), followed by reading of the absorbance at 405 nm (Lu, D. et al., 1999). In the second, direct binding assay, various amounts of diabody or scFv were added to KDR or Flt-1 coated 96-well plates and incubated at RT for 1 h, after which the plates were washed 3 times with PBST. The plates were then incubated at RT for 1 h with 100 μl of an anti-E tag antibody-HRP conjugate (Amersham Pharmacia Biotech). The plates were washed, peroxidase substrate added, and the absorbance at 450 nm read following the procedure described previously (Lu, D. et al., 1999).
(§3) The antigen binding efficiency of the diabody was determined on immobilized KDR and Flt-1. […]

Flt-1-Fc fusion protein [3] = target: T1, Flt-1-Fc fusion protein; assay: blocking ELISA: antibody pre-mixed with Flt-1-Fc, transferred to immobilized PlGF; plate-bound Flt-1-Fc detected with anti-human Fc-HRP, A450
Procedure: The assays followed previously described protocols (Zhu, Z. et al., 1998; Lu, D. et al., 1999). Briefly, various amounts of the diabody or scFv were mixed with a fixed amount of KDR-AP (100 ng) or Flt-1-Fc fusion protein (50 ng) and incubated at RT for 1 h. The mixture were then transferred to 96-well microtiter plates precoated with VEGF₁₆₅ (200 ng/well) or PlGF (200 ng/well) and incubated at RT for an additional 2 h, after which the plates were washed 5 times with PBS. For the KDR-AP assay, the substrate for AP was added, followed by reading of the absorbance at 405 nm to quantify the plate-bound KDR-AP. For the Flt-1-Fc assay, the plate was incubated with a mouse anti-human Fc-HRP conjugate to quantify the plate-bound Flt-1-Fc.

[4] = target: KDR on human umbilical vein endothelial cells (HUVEC) (human, UniProt P35968 20-1356); assay: cell-based or functional assay
Sequence of KDR on human umbilical vein endothelial cells (HUVEC) (P35968 20-1356): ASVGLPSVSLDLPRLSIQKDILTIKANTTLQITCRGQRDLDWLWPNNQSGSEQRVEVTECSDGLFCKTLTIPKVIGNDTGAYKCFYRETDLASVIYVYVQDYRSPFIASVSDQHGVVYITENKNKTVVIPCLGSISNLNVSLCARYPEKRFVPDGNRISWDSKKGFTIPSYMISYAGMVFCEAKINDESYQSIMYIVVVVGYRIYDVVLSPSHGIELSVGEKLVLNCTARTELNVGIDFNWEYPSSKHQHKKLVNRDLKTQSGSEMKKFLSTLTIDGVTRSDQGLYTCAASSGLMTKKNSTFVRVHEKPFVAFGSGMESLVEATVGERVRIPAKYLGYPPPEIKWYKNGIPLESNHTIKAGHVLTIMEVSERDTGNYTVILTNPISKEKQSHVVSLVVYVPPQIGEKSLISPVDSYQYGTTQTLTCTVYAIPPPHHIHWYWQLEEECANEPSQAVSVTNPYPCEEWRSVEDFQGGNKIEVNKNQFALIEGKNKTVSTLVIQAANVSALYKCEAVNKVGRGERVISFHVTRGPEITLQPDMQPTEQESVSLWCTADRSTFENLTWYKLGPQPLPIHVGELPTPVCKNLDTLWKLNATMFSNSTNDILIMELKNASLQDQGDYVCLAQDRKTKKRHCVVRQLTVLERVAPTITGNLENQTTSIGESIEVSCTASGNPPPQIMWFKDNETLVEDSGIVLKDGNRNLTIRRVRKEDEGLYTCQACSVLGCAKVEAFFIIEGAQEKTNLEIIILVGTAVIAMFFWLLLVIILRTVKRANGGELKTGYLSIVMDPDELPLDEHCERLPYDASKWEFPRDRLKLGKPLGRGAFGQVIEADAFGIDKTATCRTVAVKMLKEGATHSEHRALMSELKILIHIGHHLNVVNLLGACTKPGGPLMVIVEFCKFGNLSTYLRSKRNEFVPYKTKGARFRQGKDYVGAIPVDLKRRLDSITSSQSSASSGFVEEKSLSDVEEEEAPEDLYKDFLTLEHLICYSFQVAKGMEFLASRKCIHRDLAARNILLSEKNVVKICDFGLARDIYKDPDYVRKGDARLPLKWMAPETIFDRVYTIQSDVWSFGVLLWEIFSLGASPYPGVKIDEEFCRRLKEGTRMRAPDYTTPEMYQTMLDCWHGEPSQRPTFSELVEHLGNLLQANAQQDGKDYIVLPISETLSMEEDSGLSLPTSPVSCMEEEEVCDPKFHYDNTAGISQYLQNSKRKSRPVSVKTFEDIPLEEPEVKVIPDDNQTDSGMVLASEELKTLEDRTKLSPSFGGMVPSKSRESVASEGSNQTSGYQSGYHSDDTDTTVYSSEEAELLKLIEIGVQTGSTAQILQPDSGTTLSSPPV

[5] = target: T2, soluble fusion protein KDR-alkaline phosphatase (AP) (human, UniProt P35968 20-764); assay: BIAcore SPR, KDR-AP immobilized on the chip, antibody injected
T2 construct: Expressed in stably transfected NIH 3T3 cells; also called KDR-AP; soluble KDR; not shown: alkaline phosphatase (AP)
T2 sequence (P35968 20-764): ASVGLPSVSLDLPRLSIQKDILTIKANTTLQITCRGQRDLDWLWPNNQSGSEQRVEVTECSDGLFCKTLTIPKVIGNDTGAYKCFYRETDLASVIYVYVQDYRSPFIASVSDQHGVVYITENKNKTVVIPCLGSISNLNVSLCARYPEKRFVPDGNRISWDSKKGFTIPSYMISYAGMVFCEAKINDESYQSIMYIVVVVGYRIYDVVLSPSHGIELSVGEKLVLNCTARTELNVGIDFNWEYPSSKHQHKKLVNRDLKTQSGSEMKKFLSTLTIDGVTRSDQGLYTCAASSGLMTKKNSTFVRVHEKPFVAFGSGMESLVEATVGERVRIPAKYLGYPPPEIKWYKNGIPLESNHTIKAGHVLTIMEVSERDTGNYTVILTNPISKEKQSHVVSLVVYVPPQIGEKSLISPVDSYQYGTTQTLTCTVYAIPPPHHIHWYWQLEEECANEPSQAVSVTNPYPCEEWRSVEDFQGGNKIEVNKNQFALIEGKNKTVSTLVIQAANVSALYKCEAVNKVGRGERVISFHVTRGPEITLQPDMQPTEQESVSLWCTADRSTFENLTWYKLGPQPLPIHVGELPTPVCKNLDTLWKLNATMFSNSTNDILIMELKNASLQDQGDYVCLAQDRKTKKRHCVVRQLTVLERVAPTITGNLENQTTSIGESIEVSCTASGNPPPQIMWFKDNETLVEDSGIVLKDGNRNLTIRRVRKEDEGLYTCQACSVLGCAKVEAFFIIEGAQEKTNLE
Procedure: as §1

[6] = target: T2, soluble fusion protein KDR-alkaline …; assay: direct binding ELISA on immobilized KDR, detection with anti-E tag antibody-HRP, A450
Procedure: as §2, §3

T1 sequence (P17948 27-756 limits assumed): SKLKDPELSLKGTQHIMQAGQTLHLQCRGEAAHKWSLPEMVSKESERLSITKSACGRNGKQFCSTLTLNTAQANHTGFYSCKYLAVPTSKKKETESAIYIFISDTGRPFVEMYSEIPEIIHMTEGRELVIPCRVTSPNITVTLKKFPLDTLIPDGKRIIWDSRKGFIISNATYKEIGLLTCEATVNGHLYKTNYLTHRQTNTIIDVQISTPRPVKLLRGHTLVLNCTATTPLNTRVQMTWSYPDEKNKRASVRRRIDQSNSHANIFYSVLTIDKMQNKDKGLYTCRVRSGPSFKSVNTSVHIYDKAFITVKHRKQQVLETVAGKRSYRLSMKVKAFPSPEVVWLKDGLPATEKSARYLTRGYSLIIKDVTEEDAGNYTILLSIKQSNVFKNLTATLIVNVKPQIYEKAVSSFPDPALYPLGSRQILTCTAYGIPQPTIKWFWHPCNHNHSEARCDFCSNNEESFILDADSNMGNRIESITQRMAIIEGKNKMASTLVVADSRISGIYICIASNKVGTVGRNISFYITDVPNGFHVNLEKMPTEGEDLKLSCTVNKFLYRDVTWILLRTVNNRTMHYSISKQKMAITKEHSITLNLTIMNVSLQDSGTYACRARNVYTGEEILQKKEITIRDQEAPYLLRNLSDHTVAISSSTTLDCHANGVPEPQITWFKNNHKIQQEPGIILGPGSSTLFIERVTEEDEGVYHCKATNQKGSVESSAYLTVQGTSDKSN

B1: scFv 6.12 (scFv, not shown: small tags and cut ends)
scFv: QVKLQQSGAELVKPGASVKLSCTASGFNIKDTYIHWVKQSPEQGLEWIGRIDPPNDNTKYDPKFQGKATITADTSSNTAYMQLRSLTSEDTAVYYCALPPFYFDYWGHGTTVTVSSGGGGSGGGGSGGGGSDIELTQSPKFMSTSVGDRVSVTCKASQNVDTNVAWYQQKPGQSPKALIYSASYRYSGVPDRFTGSGSGTDFTLTISNVQSEDLAEYFCQQYNSFPYTFGGGTKLEIK
modifications: The soluble scFv from pCANTAB 5E carried a C-terminal E tag (detected with anti-E tag) whose letters the patent does not give; it is left out.
notes: VH-(GGGGS)3-VL, expressed from pCANTAB 5E in E. coli
Kd (Flt-1-Fc fusion protein [1]): 9.8 nM | koff (Flt-1-Fc fusion protein [1]): 0.00236 s⁻¹ | kon (Flt-1-Fc fusion protein [1]): 241000 M⁻¹ s⁻¹ | EC50 (read off the curve) (Flt-1-Fc fusion protein [2]): ~0.6 nM | IC50 (read off the curve) (Flt-1-Fc fusion protein [3]): ~1 nM

B2: scFv p1C11 (scFv)
scFv: QVKLQQSGAELVGSGASVKLSCTTSGFNIKDFYMHWVKQRPEQGLEWIGWIDPENGDSDYAPKFQGKATMTADSSSNTAYLQLSSLTSEDTAVYYCNAYYGDYEGYWGQGTTVTVSSGGGGSGGGGSGGGGSDIELTQSPAIMSASPGEKVTITCSASSSVSYMHWFQQKPGTSPKLWIYSTSNLASGVPARFSGSGSGTSYSLTISRMEAEDAATYYCQQRSSYPFTFGSGTKLEIK
notes: soluble form made in E. coli; also called KDR-specific scFv p1C11
VEGF-stimulated HUVEC mitogenesis ([3H]-TdR incorporation), IC50 [4]: ~2 nM | Kd [5]: 1.68 nM | koff [5]: 0.000121 s⁻¹ | kon [5]: 74200 M⁻¹ s⁻¹ | EC50 (read off the curve) [6]: ~0.4 nM | binding result (Flt-1-Fc fusion protein [2]): no binding (tested: about 50 nM)
